Assay [1] deals with T1, lectin MAA from Maackia amurensis (Maackia amurensis).
T1 construct: Plant lectin; peroxidase-conjugated in the solid-phase assays
The assay is described as follows: solid-phase competition; fetuin at one-third, equal or 5-fold the molar concentration of peptide; MAA.

For assay [2], the target named is T2, receptor NKG2D (UniProt P26718 80-216).
T2 sequence (looked up): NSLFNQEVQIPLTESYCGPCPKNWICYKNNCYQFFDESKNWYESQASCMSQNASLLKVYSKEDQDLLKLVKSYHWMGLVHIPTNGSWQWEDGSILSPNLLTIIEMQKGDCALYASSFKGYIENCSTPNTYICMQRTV
In words: isothermal microcalorimetry; SVH1C (100 µM) titrated into NKG2D (11 µM monomer).

The target of assay [3] is T2, receptor NKG2D. The assay is described as follows: isothermal microcalorimetry; NKG2D concentration entered as monomeric binding sites.

Where no end group is shown, it is not given here.

T1 sequence (P0DKL3 30-278): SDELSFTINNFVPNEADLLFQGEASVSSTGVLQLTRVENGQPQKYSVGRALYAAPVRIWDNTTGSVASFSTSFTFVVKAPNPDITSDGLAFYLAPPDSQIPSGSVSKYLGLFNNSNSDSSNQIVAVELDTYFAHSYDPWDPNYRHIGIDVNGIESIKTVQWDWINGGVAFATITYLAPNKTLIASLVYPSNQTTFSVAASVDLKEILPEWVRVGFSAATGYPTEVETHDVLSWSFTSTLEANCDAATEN

B1: fetuin (other, UniProt P12763 19-359, looked up)
chain: IPLDPVAGYKEPACDDPDTEQAALAAVDYINKHLPRGYKHTLNQIDSVKVWPRRPTGEVYDIEIDTLETTCHVLDPTPLANCSVRQQTQHAVEGDCDIHVLKQDGQFSVLFTKCDSSPDSAEDVRKLCPDCPLLAPLNDSRVVHAVEVALATFNAESNGSYLQLVEISRAQFVPLPVSVSVEFAVAATDCIAKEVVDPTKCNLLAEKQYGFCKGSVIQKALGGEDVRVTCTLFQTQPVIPQPQPDGAEAEAPSAVPDAAGPTPSAAGPPVASVVVGPSVVAVPLPLHRAHYDLRHTFSGVASVESSSGEAFHVGKTPIVGQPSIPGGPVRLCPGRIRYFKI
modifications: 12 to 15 oligosaccharides terminating predominantly as Neu5Ac-Gal on three N-linked and three O-linked glycans
notes: acts through its sialylated glycans; also called glycoprotein fetuin; sialylated protein, fetuin
Regarding B1, the “percent inhibition of SVH1C binding at a 5-fold molar excess of fetuin” value in assay [1] stood at 90%.

B2: SVH1C ([NPSHPLSGGGGS]4K3-NH2) (peptide)
peptide: NPSHPLSGGGGS
chain: Lys-Lys-Lys-NH2
modifications: also: four copies of chain 1 bound by their C-termini to the four amino groups of the branched tri-lysine core
notes: also called quadravalent SVH1C; lead peptide
For orientation: Kd means the equilibrium constant for the complex coming apart. Low readings indicate tighter binding, high ones weaker binding. In the assay with receptor NKG2D [2], B2 gave a Ka of 1.7e+06 M⁻¹ and a Kd of 0.6 µM. In addition, the “stoichiometry, n” value with receptor NKG2D [3] is 0.71.
